The supplement of paper PMC10126150
± gives the standard deviation of the averaged measurements.

Tested on: ATP
Test: switch fluorescence ratio, 500 uM ATP over buffer (Cy3 cluster intensity, sum of 5 cycles each) (fold (ratio)); higher = stronger signal-on switching upon ATP binding; sequences stand for … in TCGTCGGCAGCGTCAGATGTGTATAAGAGACAGTTTTTTTTTTTTTTTTTTTTTTTTT…TC
Conditions: aptamer strand: ATP DNA aptamer (quencher-CACCTGGGGGAGTATTGCGGAGGAAGG + anchor), 100 nM annealed; ATP concentration: 500 uM
Method in brief: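 Clusters with intensities outside 100-1000 RFU were excluded. The remaining Cy3-labelled switching-strand clusters on a modified Illumina MiSeq flow-cell had been annealed to 100 nM quencher-labelled ATP aptamer and imaged in selection buffer, then after 15 min with 500 uM ATP at 22 °C, for five cycles separated by NaOH stripping and re-annealing. The fluorescence ratio, averaged per switch-domain sequence, is each cluster's summed target-cycle Cy3 intensity over its summed buffer-cycle Cy3 intensity.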
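Also: ATP exposure 15 min at 22 °C before imaging.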

Sequence | switch fluorescence ratio
TGAGCAGAGG | 1.04 ± 0.015
TGAGCAGTTG | 1.06 ± 0.12
TGAGCATAGT | 1.026 ± 0.0023
TGAGCCCACG | 1.027 ± 0.0039
TGAGCTTTTT | 0.993 ± 0.03
TGAGGAAAGA | 0.988 ± 0.035
TGAGGAAGGG | 1.04 ± 0.099
TGAGGAATGT | 1.0157 ± 0.00058
TGAGGACCCT | 1.02 ± 0.025
TGAGGCAAGG | 1.69 ± 0.47
TGAGGCGGGT | 1.05 ± 0.016
TGAGGGAATT | 1.01 ± 0.018
TGAGGGATGT | 1.04 ± 0.059
TGAGGGGAGT | 0.9908 ± 0.0067
TGAGGGGATA | 1.01 ± 0.025
TGAGGGGGAC | 1.02 ± 0.087
TGAGGGGGTT | 0.997 ± 0.049
TGAGGGGTAG | 0.988 ± 0.05
TGAGGGTAAG | 1.13 ± 0.21
TGAGGGTTCT | 0.979 ± 0.02
TGAGGTATG | 0.971 ± 0.046
TGAGGTATTA | 1.0075 ± 0.00077
TGAGGTGGTG | 1.01 ± 0.0074
TGAGGTGTTG | 1.01 ± 0.063
TGAGGTTGGC | 1.01 ± 0.023

Sequence | switch fluorescence ratio
TGAGTAACAG | 0.981 ± 0.012
TGAGTAATTT | 1.01 ± 0.037
TGAGTACGTC | 1.06 ± 0.14
TGAGTCAGTG | 1.0116 ± 0.00046
TGAGTCCATT | 0.985 ± 0.018
TGAGTCGCGT | 1.01 ± 0.013
TGAGTGTGGG | 0.99 ± 0.03
TGAGTGTGTA | 1.03 ± 0.042
TGAGTTAAAG | 0.9876 ± 0.0082
TGAGTTAAGT | 0.997 ± 0.01
TGAGTTATCG | 0.968 ± 0.033
TGAGTTCTTG | 0.982 ± 0.046
TGAGTTGGAC | 1.08 ± 0.067
TGAGTTGGAG | 0.9878 ± 0.002
TGAGTTGGCT | 1.02 ± 0.014
TGAGTTGGGA | 1.002 ± 0.0057
TGAGTTGGTT | 0.973 ± 0.026
TGAGTTGTTT | 0.985 ± 0.013
TGAGTTTGCG | 1.01 ± 0.075
TGAGTTTTAG | 0.972 ± 0.031
TGAGTTTTTT | 0.982 ± 0.039
TGATAAATGT | 1.13 ± 0.19
TGATAACTCC | 1.03 ± 0.036
TGATAAGGAG | 1.01 ± 0.012
TGATACTGAT | 1.02 ± 0.058

Sequence | switch fluorescence ratio
TGATAGATGC | 1.03 ± 0.025
TGATAGGGAG | 0.982 ± 0.019
TGATAGGGGA | 1.01 ± 0.047
TGATAGTCCT | 1.03 ± 0.013
TGATATACTG | 0.968 ± 0.026
TGATATGTAA | 1.021 ± 0.0094
TGATATTGAG | 1 ± 0.045
TGATATTTTT | 0.998 ± 0.028
TGATCAGGAG | 0.9853 ± 0.0053
TGATCATCTA | 0.993 ± 0.024
TGATCGGCGG | 1.02 ± 0.05
TGATCGGGGA | 1.028 ± 0.0063
TGATCGGGTA | 1 ± 0.011
TGATCTCTTT | 1.03 ± 0.049
TGATCTGGGG | 1.01 ± 0.033
TGATGAGATT | 0.999 ± 0.02
TGATGAGCTC | 0.983 ± 0.02
TGATGAGTCT | 1.03 ± 0.062
TGATGATTTT | 0.945 ± 0.017
TGATGCGGAT | 1.016 ± 0.0013
TGATGCTTCA | 1 ± 0.037
TGATGGAGAG | 0.97 ± 0.034
TGATGGAGGC | 1.01 ± 0.013
TGATGGCCTG | 0.986 ± 0.067
TGATGGCGGG | 0.9917 ± 0.0042

Sequence | switch fluorescence ratio
TGATGGCGGT | 1.04 ± 0.065
TGATGGGCAG | 1.01 ± 0.047
TGATGGGGAT | 1.03 ± 0.017
TGATGGGGGA | 1.01 ± 0.03
TGATGGGGTA | 1.04 ± 0.019
TGATGGGTGC | 1.04 ± 0.045
TGATGGGTTA | 0.962 ± 0.029
TGATGGTATA | 1.01 ± 0.025
TGATGGTGGG | 0.979 ± 0.029
TGATGGTGTC | 0.968 ± 0.011
TGATGTCCGT | 0.997 ± 0.02
TGATGTCGGG | 0.999 ± 0.034
TGATGTGAAA | 0.977 ± 0.015
TGATGTTGT | 1.005 ± 0.0071
TGATTAAGGG | 0.9752 ± 0.0072
TGATTACAGT | 1 ± 0.018
TGATTAGGGG | 0.9948 ± 0.0096
TGATTCAGTA | 0.974 ± 0.011
TGATTCTAAT | 1 ± 0.042
TGATTGAATG | 0.9785 ± 0.001
TGATTGACGG | 0.975 ± 0.015
TGATTGAGGA | 0.981 ± 0.027
TGATTGATAT | 1.01 ± 0.012
TGATTGCCCG | 0.9376 ± 0.0077
TGATTGCTAT | 1.01 ± 0.039
